This is an account of results in the nanobody polyreactivity screen of Harvey et al. (2022).

The data set is described as follows: yeast display, Sf9 membrane polyspecificity reagent, FACS + sequencing; frameworks hold sequencing errors. The method, boiled down:
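In a synthetic yeast display library (Saccharomyces cerevisiae BJ5465), nanobody expression was induced with galactose for 36–48 hours. FACS gates were set low and high (top ~1%) using anti-HA fluorescence for expression and streptavidin fluorescence for binding of the Sf9 membrane reagent. Each polyreactivity label is drawn from the gate of origin.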
For “QVQLVESGGGLVQAGGSLRLSCAASGFTFAPNAMGWYRQAPGKEMELVAAISSASSTYYADSVKGRFTISRDNAKNTVYLQMNSLKPEDTAVYYCAARVFKKYRPSGRYYYWGQGSQVTVSS”, the “polyreactivity (PSR sort gate)” value was “high polyreactivity”.
In the case of “QVQLVESGGGLVQAGGSLRLSCAASGFTFARNTMGWYRQAPGKEREFVAVITNRGGSTYYADSVKGRFTISRDNAKNTVYLQMNSLKPEDTAVYYCAARKKHSGYGRGNYWGQGTQVTVSS” it was “high polyreactivity”; in that of “QVQLVESGGGLVQAGGSLRLSCAASGFTFARYVMGWYRQAPGKERELVAAISWRGTRTFYADSVKGRFTISRDNAKNTVYLQMNSLKPEDTAVYYCAADSRPPKYDYWGQGTQVTVSS”, “high polyreactivity”.
For the sequence “QVQLVESGGGLVQAGGSLRLSCAASGFTFASNAMGWYRQAPGKERELVAGISRTGTTTYYADSVKGRFTISRDNAKNTVYLQMNSLKPEDTAVYYCAKGSNSYLRYHYTYPYDYWGQGTQVTVSS”, the “polyreactivity (PSR sort gate)” value was “high polyreactivity”.
Turning to “QVQLVESGGGLVQAGGSLRLSCAASGFTFASNDMGWYRQAPGKERELVASITKGGGRTYYADSVKGRFTISRDNAKNTVYLQMNSLKPEDTAVFYCAARQLIKYDYWGQGTQVTVSS”, the “polyreactivity (PSR sort gate)” value is given as “low polyreactivity”.
Then “QVQLVESGGGLVQAGGSLRLSCAASGFTFASNGRGGYRQAPGKERELVAVIDWSDDSTYYADSVKGRFTISRDNAKNTVYLQMNSLKPEDTAVYYCNADDWWGGYDYWGQGTQVTVSS”, with “low polyreactivity”.
Turning to “QVQLVESGGGLVQAGGSLRLSCAASGFTFATYDMGLYRQAPGKERELVAAISRSGGRTYYADSVKVLFTISRDYAKNTVYLQMNSLKPEDTAVYYCAKYVPGYPYDYWGQGTQVTVSS”, the “polyreactivity (PSR sort gate)” value is “high polyreactivity”.
For “QVQLVESGGGLVQAGGSLRLSCAASGFTFAVNAMGWYRQAPGKERELVAAISWSGVSTYYADSVKRRFTISRDNAKNTVYLQMNSLKPEDTAVYYCARRRTKSYTRKYDYWGQGTQVTVSS”, the “polyreactivity (PSR sort gate)” value is “low polyreactivity”.
Then “QVQLVESGGGLVQAGGSLRLSCAASGFTFAVYAMGWYRQAPGKERELVAAIDSSDGSTSYADSVKGRFTISRDNAKNTVYLQMNSLKPEDTAVYYCAGDQYWWFYEYEYWGQGTQVTVSS”, with “low polyreactivity”; and “QVQLVESGGGLVQAGGSLRLSCAASGFTFAVYAMGWYRQAPGKERELVAAINRGGGSTYYADSVKGRFTISRDNAKNTVYLQMNSLKPEDTAVYYCNKRYRVWFDYWGQGTQVTLSS”, with “high polyreactivity”.
In the case of “QVQLVESGGGLVQAGGSLRLSCAASGFTFAVYVMGWYRQAPGKERELVATISFSVGSTYYADSVKGRFTISRDNAKNTVYLQMNSLKPEDTAVYYCNADPPPEYYPDKDNYWGQGTQVTVSS” it was “low polyreactivity”; in that of “QVQLVESGGGLVQAGGSLRLSCAASGFTFAWYAMGWYRQAPGKERELVAAITSSGGSTYYADSVKGRFTISRDNAKNTVYLQMNSLKPEDTAVYYCAARPWIWARAGYYWGQGTQVTVSS”, “high polyreactivity”.
As to “QVQLVESGGGLVQAGGSLRLSCAASGFTFAYYAMGWYRPAPGKERELVAAITSGGRTNYADSVKGRFTISRDNAKNTVYLQMNSMKPEDTAVYYFAKGYRRVYGPLYYWGQGTQVTVSS”, the “polyreactivity (PSR sort gate)” value was “low polyreactivity”.
Then “QVQLVESGGGLVQAGGSLRLSCAASGFTFAYYAMGWYRQAAGKERELVAAITVSGASTYYADSVKGRFTISRDNAKNTDYLQMNRLKPEETAVYYCARYYAIVSGYYDDGYWGQGTQVTVSS”, with “high polyreactivity”; and “QVQLVESGGGLVQAGGSLRLSCAASGFTFAYYAMGWYRQAPGKERELVAAISSRGGSTYADSVKGRFTISRDNAKNTVYLQMNSLKPEDTAVYYCNAVVPRSRYFSWTYDYWGQGTQVTVSS”, with “high polyreactivity”.
With “QVQLVESGGGLVQAGGSLRLSCAASGFTFAYYAMGWYRQAPGKERELVAAISYSGGSTYYADSVKGRFTISRDNAKNTVYLQMNSLKPEDTAVYYCAAEAGRRYNWGYDYWGQGTQVTVSS”, the “polyreactivity (PSR sort gate)” value is “high polyreactivity”.
In the case of “QVQLVESGGGLVQAGGSLRLSCAASGFTFAYYAMGWYRQAPGKERELVAAITRGGGRTFYADSVKGRFTISRDNAKNTVYLQMNSLKPEDTAVYYCAREVYRHYAPVGYDYWGQGTQVTVSS” it was “high polyreactivity”.
As to “QVQLVESGGGLVQAGGSLRLSCAASGFTFAYYTMGWYRQAPGKERELVAAINWSGGSTYYADSVKGRFTISRDNAKNTVYLQMNSLKPEDTAVYYSAPTCPYYNSRQGHQYDYWGQGTQVTVSS”, the “polyreactivity (PSR sort gate)” value was “high polyreactivity”.
Then “QVQLVESGGGLVQAGGSLRLSCAASGFTFCSNAMGWYRQAPGKERELVAAITWSGGRTYYADSVKGRFTISRDNAKNTVYLQMNSLKPEDTAVYYCNAYRNWWWSQYDYWGQGTQVTVSS”, with “high polyreactivity”; and “QVQLVESGGGLVQAGGSLRLSCAASGFTFDENAMGWSRQAPGINYSRASTYYADSVKGRFTISRDNAKNTVYLQMISLKPEDTAVYYCNKASYWGSGFDYWGQGTQVTVSS”, with “low polyreactivity”.
As to “QVQLVESGGGLVQAGGSLRLSCAASGFTFDEYAMGWYRQAPGKEREFVATISSSGGSTYYADSVKGRFTISRDNAKNTVYLQMNSLKPEDTAVYYCAADVRRLYTSGVDYWWHSEYDYWGQGTQVTLSS”, the “polyreactivity (PSR sort gate)” value is on record as “low polyreactivity”.
Then “QVQLVESGGGLVQAGGSLRLSCAASGFTFDFYAMGWYRQAPGKERELVAAINWSGSSTYYADSVKGRFTISRDTAKNTVYLQMNSLKPEDTAVYYCAAQVYYTLFPDVYTMYYWGQGTQVTVSS”, with “high polyreactivity”.
As for “QVQLVESGGGLVQAGGSLRLSCAASGFTFDFYAMGWYRQAPGKERELVAAISKNDGTTYYADSVKGRFTISRDNAKNTVYLQMYSLKPVDTAVYYCAAESGYPVYTYVSSGDYWGQGTQVTVSS”, the “polyreactivity (PSR sort gate)” value is “low polyreactivity”.
Then “QVQLVESGGGLVQAGGSLRLSCAASGFTFDGYAMGWYRQAPGKERELVAAISQSGGSTYYADSVKGRVTISRDNAKNTVYLQMNSLKPEDTAVYYCNAYTGYRIRYDYWGQGTQVTVSS”, with “high polyreactivity”; and “QVQLVESGGGLVQAGGSLRLSCAASGFTFDGYAMGWYRQAPGKERELVAAITRRGGRTYYADSVKGRFTISRDNAKNTVYLQMNSLKPEDTAVYFCAAERYGDRFYGAYDYWGQGTQVTVSS”, with “high polyreactivity”.
Take “QVQLVESGGGLVQAGGSLRLSCAASGFTFDINTMGWYRQAPGKERELVAAITYSGGSTYYADSVKGRFTISRDNAKNTVYLQMNSLKPEDTAVYYCATTWYFVASWYVAIYDYWGQGTQVTVSS”: the “polyreactivity (PSR sort gate)” value is “low polyreactivity”.
Then “QVQLVESGGGLVQAGGSLRLSCAASGFTFDIYAMGWYRQAPGKERELVATISFTGDTTSYADSVKGRFTISRHNAKNTVYLQMNSLKPEDTAVYYCAADGSYPLSVGRENLHYAEFDYWGQGTQVTVSS”, with “low polyreactivity”; and “QVQLVESGGGLVQAGGSLRLSCAASGFTFDIYAMGWYRQAPGTERELVATISFTGDTTSYADSVKGRFTISRDNAKTTVYLQMNSLKPEDTAVYYCAADGSYPLSVGRENLHYAEFDYWGQGTQVTVSS”, with “low polyreactivity”; and “QVQLVESGGGLVQAGGSLRLSCAASGFTFDKYGMGWYRQAPGKERELVAAISSGGSTNYADSVKGRFTISRDNAKNTVYLQMNSLKPEDSAVYYCAARYYRYGRFRAYSWWTYGYWGQGTQVTVSS”, with “high polyreactivity”.
On to “QVQLVESGGGLVQAGGSLRLSCAASGFTFDNYGMGWYRQAPGKERDLVAAISTSGGSTYYADSVKGRFTISRDNEKNTVYFQMNSLKPEDTADYYCNVDFYEYSSVSYDYWGQGTQVTVSS”, for which the “polyreactivity (PSR sort gate)” value is “high polyreactivity”.
